According to patent publication US20250000991A1, “NECTIN-4 ANTIBODIES AND ANTIBODY-DRUG CONJUGATES” (Eli Lilly and Company, priority 2023, published 2025):

Assays:
[1] = biological target: human Nectin-4-eGFP on T24 cells (clone 3) (human) (UniProt Q96NY8); experiment: cell-based or functional assay
[2] = biological target: human nectin-4 on cells (human) (UniProt Q96NY8); experiment: cell-based or functional assay

% activity (max GFP signal loss compared to enfortumab mAb (100%)) [1]: 120%
EC50 (nM) of nectin-4-eGFP signal loss [1]: 2.55 nM
B1: enfortumab ADC (enfortumab conjugated as in Formula XI, DAR of 8) (antibody, INN chains, looked up, V domains shown)
VH: EVQLVESGGGLVQPGGSLRLSCAASGFTFSSYNMNWVRQAPGKGLEWVSYISSSSSTIYYADSVKGRFTISRDNAKNSLSLQMNSLRDEDTAVYYCARAYYYGMDVWGQGTTVTVSS
VL: DIQMTQSPSSVSASVGDRVTITCRASQGISGWLAWYQQKPGKAPKFLIYAASTLQSGVPSRFSGSGSGTDFTLTISSLQPEDFATYYCQQANSFPPTFGGGTKVEIKR
modifications: drug conjugate Formula XI, DAR 8
Cytotoxicity IC50, NCI H1781 cells [2]: 0.0409 nM
Cytotoxicity IC50, T24 Nectin-4 clone 108 cells [2]: 0.0747 nM
